T1: hTNFR2 protein (coated on the microplate in the blocking ELISA) (human, UniProt P20333 23-257)
T1 construct: The construct coated in the ELISA is not described (it may or may not be the immunogen, Sino biological 10417-H03H)
T1 sequence (looked up): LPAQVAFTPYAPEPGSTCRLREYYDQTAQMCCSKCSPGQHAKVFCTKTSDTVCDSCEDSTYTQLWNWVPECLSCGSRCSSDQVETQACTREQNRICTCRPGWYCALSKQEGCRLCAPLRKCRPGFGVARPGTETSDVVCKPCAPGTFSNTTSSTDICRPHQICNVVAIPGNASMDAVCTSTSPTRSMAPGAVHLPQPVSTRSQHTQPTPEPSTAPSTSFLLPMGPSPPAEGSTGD

T2: cynomolgus monkey TNFR2 overexpressed on CHO-S cells (CHOS-cTNFR2) (cynomolgus monkey, UniProt P20333 23-461 (human entry))
T2 construct: also called cTNFR2 CHO-S
T2 chain: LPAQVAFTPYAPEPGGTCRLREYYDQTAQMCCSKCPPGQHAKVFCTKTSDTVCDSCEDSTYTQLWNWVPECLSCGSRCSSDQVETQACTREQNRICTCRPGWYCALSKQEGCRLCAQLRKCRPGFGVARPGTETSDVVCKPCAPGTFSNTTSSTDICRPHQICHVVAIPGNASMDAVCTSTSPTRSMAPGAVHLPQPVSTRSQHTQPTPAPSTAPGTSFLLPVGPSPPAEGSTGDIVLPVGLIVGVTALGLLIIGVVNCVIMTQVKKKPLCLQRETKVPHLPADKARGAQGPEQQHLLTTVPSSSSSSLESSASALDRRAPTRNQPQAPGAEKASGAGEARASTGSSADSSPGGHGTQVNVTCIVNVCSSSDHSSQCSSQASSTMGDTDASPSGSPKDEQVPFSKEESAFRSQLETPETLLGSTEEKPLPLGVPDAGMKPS

T3: human TNFR2 overexpressed on CHO-S cells (CHOS-hTNFR2) (human, UniProt P20333 23-461)
T3 construct: also called hTNFR2 CHO-S; human TNFR2 molecule overexpressed on CHO-S cells
T3 sequence: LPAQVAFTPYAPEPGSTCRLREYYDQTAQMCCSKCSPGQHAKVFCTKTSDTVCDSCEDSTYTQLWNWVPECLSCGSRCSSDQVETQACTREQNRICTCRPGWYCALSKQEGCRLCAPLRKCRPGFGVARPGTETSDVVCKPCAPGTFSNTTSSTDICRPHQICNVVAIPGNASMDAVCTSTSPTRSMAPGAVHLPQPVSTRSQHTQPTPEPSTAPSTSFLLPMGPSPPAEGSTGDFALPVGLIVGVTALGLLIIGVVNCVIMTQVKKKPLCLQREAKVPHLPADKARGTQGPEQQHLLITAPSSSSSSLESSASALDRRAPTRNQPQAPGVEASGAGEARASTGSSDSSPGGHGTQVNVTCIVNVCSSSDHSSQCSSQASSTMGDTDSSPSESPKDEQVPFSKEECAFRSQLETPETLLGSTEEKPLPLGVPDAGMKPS


How the values were obtained:
[1] = molecular target: T1, hTNFR2 protein (coated on the …); experiment: blocking ELISA: hTNFR2 coated on the plate, binding of biotinylated TNFα blocked by the antibody; unit taken from the axis Conc log(nM) [A]
Experimental: The hTNFR2 protein was resuspended and dissolved to a concentration of 2 μg/mL with PBS, and a microplate was coated with the protein and incubated overnight. The plate was blocked with 5% BSA for 1 h, and a biotinylated antigen (Recombinant Biotinylated TNFα protein (ACRO)) was diluted to 2 μg/mL and added to the plate at 10 μL/well. The antibodies prepared as described above (3C4, 69B1, and 72G8) were each diluted in a gradient starting from the maximum concentration of 300 nM for a total of 8 or 12 dilution gradients. The diluted antibodies were added at 100 μL/well and incubated in PBS on ice for 30 min. The antigen-antibody mixture was incubated in a microplate for 90 min and washed three times with PBS, and the supernatant was discarded. 100 μL of Avidin-HRP (Invitrogen) diluted at a 1:5000 ratio was added to each well, incubated at room temperature for 30 min, and washed six times with PBS. A TMB chromogenic solution (solarbio) was added to the plate at 100 μL/well for color development for 1 min, and the reaction was stopped by adding a stop buffer (solarbio) at 100 μL/well. The plate was read on a microplate reader at OD₄₅₀ and OD₆₂₀.
In a similar manner to that in Example 7, the ability of the humanized antibodies hz3C4.7, hz69b1.5, hz69b1.6, hz69b1.11, and hz69b1.20, and the control antibody OPI to block the binding of human TNFα to hTNFR2 was assayed by ELISA.

[2] = molecular target: T2, cynomolgus monkey TNFR2 overexpressed …; experiment: flow cytometry on CHO-S cells overexpressing cynomolgus monkey TNFR2 (positive control), MFI-FL2-A; unit taken from the axis Conc log(nM)
Experimental: (§1) In the study, the binding of the chimeric antibodies of the present invention, after being diluted in a gradient, to a stable CHO-S cell strain overexpressing human TNFR2 on the surface was assayed by using a flow cytometer. cDNAs encoding human TNFR2 (SEQ ID NO: 60) and cynomolgus monkey TNFR2 (SEQ ID NO: 61) were cloned into pCH01.0 vectors (Invitrogen), which were transfected into CHO-S cells (Invitrogen) to produce CHO-S cells overexpressing human TNFR2 (CHOS-hTNFR2) and CHO-S cells overexpressing cynomolgus monkey TNFR2 (CHOS-cTNFR2).
(§2) CHOS-hTNFR2 cells or CHOS-cTNFR2 cells were counted and diluted to 2×10⁶ cells/mL, and added to a U-bottom 96-well plate at 100 μL/well. The mixture was centrifuged at 300 g for 5 min, and the cell medium was removed. The dilutions of the samples (the chimeric antibodies 3C4, 69B1, and 72G8 and the positive control antibody OPI) (the antibodies were subjected to a three-fold serial dilution in PBS from the maximum antibody concentration of 300 nM) were added to the U-plate, and the cells were resuspended at 100 μL/well and left to stand on ice for 30 min. The suspension was centrifuged at 400 g for 5 min, and the supernatant was removed. The cells were washed twice with PBS. The mixture was centrifuged at 300 g for 5 min, and PBS was removed. […]

[3] = molecular target: T2, cynomolgus monkey TNFR2 overexpressed …; experiment: flow cytometry on CHO-S cells overexpressing cynomolgus monkey TNFR2 (chimeric antibodies), MFI-FL2-A; unit taken from the axis Conc log(nM)
Experimental: as §1, §2

[4] = molecular target: T3, human TNFR2 overexpressed on CHO-S …; experiment: flow cytometry on CHO-S cells overexpressing human TNFR2 (chimeric antibodies), MFI-FL2-A; unit taken from the axis Conc log(nM)
Experimental: as §1, §2

| IC50 [1] [nM] | EC50 [2] [nM] | EC50 [3] [nM] | EC50 [4] [nM] | Binder |
| --- | --- | --- | --- | --- |
| 38.2 | 0.431 |  |  | positive control antibody OPI (humanized antibody SBT-002e in WO 2017083525) (antibody, V domains shown, also called Benchmark OPI) VH: QVTLKESGPALVKPTQTLTLTCTFSGFSLSTSGMGVGWIRQPPGKALEWLAHIWWDDDKFYNPSLKSRLTISKDTSKNQVVLTMTNMDPVDTATYYCARLTGTRYFDYWGQGTTVTVSS VL: DVQMTQSPSSLSASVGDRVTITCKASQDINKFIAWYQQKPGKAPKLLIHYTSTLQPGIPSRFSGSGSGRDYTFTISSLQPEDIATYYCLQYGNLWTFGGGTKVEIK |
|  |  | 0.324 | 3.14 | chimeric antibody 69B1 (antibody, human IgG1, kappa, V domains shown) VH: QIQLVQSGPELKKPGETVKISCKASGYTFTDYSMNWVKQAPGKGLKWMGWLNTETGEPIYADDFKGRFVFSLETSASTAYLEINNLNDEDTATYFCAREAIYYGTSYVLDYWGQGTSVTVSS VL: DIVLTQSPASLAVSLGQRATISCRASESVEYYGTNFMQWYQQKPGQPPKLLIYSASNVESGVPARFSGSGSGTDFSLNIHPVEEDDIAVYFCQQSRKDPSTFGEGTNLEIKR |
| 24.2 |  | 0.355 | 2 | chimeric antibody 3C4 (antibody, human IgG1, kappa, V domains shown) VH: QVQLQQSGPELVKPGASVTISCKASDYSFTNYYIHWVKQRPGQGLEWIGWIYPGNVITKYHEKFKGKAILTADTSSTTAYMQLNSLTSEDSAVYFCARSRATGYFDYWGQGTTLTVSS VL: DIQMTQTTSSLSASLGDRVTISCRASQDIRNYLNWFQQKPDGTIKLLIYYTSRLHSGVPSRFSGSGSGTDYSLTISNLEQEDMATYFCQQFNTLPWTFGGGTKLEIKR |

From patent US20240026019A1 (Innovent, published 2024)
